Assays:
Experiment in all cases: cell-based or functional assay
Abl (h) = Abl (h) (human (h), UniProt P00519 27-1130, limits assumed)
ASK1 (h) = ASK1 (h) (human (h), UniProt Q99683 649-946, limits assumed)
Aurora-A (h) = target: T1, Aurora-A (h) (human (h), UniProt O14965 1-403)
T1 sequence (looked up): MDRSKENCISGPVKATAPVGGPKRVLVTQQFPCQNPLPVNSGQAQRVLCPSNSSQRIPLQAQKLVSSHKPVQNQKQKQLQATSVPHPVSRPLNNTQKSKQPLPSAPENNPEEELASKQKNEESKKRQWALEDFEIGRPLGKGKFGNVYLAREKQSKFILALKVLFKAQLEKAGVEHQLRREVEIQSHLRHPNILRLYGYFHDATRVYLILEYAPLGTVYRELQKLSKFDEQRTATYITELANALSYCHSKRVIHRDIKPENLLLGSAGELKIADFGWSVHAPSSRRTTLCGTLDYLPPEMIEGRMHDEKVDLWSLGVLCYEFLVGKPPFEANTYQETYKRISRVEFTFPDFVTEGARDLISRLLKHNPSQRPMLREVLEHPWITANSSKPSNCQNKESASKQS

CKIB (h) = CKIB (h) (human (h))
CK2 (h) = CK2 (h) (human (h), UniProt P68400 1-391)
cKit (h) = cKit (h) (human (h), UniProt P10721 544-976, limits assumed)
EGFR (h) = EGFR (h) (human (h), UniProt P00533 696-1210, limits assumed)
IRAK4 (h) = target: T2, IRAK4 (h) (human (h), UniProt Q9NWZ3 1-460, limits assumed)
T2 sequence (looked up): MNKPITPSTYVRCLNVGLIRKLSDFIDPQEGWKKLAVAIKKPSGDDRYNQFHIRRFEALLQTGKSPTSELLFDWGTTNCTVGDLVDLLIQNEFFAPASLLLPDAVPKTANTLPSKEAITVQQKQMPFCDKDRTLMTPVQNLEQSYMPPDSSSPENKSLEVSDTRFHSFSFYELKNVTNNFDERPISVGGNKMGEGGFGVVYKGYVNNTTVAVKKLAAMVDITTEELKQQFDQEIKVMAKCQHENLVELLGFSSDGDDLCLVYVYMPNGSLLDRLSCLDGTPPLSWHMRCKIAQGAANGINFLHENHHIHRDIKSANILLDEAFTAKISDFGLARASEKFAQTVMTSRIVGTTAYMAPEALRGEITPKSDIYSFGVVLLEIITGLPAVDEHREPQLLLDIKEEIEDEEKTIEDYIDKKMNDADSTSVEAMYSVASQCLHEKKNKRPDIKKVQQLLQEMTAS

KDR (tl) = KDR (tl) (UniProt P35968 790-1356, limits assumed)
MAPKI (h) = MAPKI (h) (human (h), UniProt P28482 1-360, limits assumed)
MAPKAP-K2 (h) = MAPKAP-K2 (h) (human (h), UniProt P49137 46-400, limits assumed)
MAPKAP-K3 (h) = MAPKAP-K3 (h) (human (h), UniProt Q16644 1-382, limits assumed)
Met (h) = Met (h) (human (h), UniProt P08581 974-1390, limits assumed)
MKK4 (m) = target: T3, MKK4 (m) (mouse (m), UniProt P47809 35-397, limits assumed)
T3 sequence (looked up): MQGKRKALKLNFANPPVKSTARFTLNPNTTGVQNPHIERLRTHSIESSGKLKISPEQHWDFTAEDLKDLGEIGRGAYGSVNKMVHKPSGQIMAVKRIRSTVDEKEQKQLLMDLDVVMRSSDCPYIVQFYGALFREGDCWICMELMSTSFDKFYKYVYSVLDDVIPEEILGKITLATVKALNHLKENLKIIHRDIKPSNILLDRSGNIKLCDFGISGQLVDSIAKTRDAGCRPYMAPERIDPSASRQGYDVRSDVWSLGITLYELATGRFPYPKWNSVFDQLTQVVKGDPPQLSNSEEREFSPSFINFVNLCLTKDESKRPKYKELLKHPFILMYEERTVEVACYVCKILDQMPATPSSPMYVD

MKK6 (h) = target: T4, MKK6 (h) (human (h), UniProt P52564 1-334, limits assumed)
T4 sequence (looked up): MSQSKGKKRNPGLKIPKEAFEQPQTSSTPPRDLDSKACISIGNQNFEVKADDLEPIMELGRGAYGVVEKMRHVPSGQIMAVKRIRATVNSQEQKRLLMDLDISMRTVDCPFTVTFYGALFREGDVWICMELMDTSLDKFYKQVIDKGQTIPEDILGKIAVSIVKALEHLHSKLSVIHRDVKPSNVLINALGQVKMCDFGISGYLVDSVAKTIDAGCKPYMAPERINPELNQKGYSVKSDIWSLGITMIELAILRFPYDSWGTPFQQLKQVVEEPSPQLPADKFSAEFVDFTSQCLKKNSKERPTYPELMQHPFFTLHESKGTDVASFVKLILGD

MLCK (h) = MLCK (h) (human (h))
MSK1 (h) = MSK1 (h) (human (h), UniProt O75582 1-802)
Pim-1 (h) = Pim-1 (h) (human (h), UniProt P11309 1-313)
PKCδ (h) = PKCδ (h) (human (h), UniProt Q05655 1-676)
Rsk2 (h) = Rsk2 (h) (human (h), UniProt P51812 1-740)
Tie2 (h) = Tie2 (h) (human (h), UniProt Q02763 771-1124, limits assumed)
Sequence of Tie2 (h) (Q02763 771-1124 limits assumed): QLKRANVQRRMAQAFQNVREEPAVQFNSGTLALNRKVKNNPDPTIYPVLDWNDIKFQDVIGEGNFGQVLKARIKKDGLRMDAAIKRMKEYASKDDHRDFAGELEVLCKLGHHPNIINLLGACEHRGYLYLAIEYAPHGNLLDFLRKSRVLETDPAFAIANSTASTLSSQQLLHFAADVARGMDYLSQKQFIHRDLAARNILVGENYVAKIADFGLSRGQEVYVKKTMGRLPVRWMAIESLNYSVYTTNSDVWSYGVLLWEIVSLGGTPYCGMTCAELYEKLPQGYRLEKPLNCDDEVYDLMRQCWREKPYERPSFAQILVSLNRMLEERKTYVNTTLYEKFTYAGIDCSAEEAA

Sequence of MSK1 (h) (O75582 whole entry): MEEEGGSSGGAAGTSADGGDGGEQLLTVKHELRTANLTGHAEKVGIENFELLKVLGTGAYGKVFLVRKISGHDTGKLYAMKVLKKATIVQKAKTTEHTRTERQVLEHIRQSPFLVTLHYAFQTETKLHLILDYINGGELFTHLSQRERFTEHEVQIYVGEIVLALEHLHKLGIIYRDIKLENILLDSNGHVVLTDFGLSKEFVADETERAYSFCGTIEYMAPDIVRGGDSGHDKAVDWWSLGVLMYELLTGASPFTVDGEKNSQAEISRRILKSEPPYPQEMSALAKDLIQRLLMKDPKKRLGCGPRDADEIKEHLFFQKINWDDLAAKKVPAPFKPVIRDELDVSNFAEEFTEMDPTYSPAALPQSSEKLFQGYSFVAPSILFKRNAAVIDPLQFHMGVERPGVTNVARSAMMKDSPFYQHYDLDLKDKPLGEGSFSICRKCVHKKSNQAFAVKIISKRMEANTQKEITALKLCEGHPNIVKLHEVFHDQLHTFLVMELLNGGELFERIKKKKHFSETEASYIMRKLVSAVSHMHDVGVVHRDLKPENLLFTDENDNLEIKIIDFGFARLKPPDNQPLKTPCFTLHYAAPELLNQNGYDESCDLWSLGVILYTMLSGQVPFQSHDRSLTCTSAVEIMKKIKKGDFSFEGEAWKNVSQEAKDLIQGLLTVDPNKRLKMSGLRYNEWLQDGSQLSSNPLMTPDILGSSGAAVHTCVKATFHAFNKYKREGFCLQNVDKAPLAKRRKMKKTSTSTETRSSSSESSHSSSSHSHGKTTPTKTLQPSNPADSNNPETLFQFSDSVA
Sequence of CK2 (h) (P68400 whole entry): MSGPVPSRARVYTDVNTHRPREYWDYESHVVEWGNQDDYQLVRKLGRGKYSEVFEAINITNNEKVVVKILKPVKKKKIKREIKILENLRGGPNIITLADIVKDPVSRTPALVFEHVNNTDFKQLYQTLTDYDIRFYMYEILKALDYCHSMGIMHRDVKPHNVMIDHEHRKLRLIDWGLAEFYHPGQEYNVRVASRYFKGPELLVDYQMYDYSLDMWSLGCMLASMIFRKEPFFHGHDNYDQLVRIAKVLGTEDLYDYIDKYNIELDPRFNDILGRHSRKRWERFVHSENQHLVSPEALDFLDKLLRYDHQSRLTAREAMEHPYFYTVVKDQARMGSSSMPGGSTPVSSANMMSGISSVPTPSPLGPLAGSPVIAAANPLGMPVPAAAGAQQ
Sequence of Abl (h) (P00519 27-1130 limits assumed): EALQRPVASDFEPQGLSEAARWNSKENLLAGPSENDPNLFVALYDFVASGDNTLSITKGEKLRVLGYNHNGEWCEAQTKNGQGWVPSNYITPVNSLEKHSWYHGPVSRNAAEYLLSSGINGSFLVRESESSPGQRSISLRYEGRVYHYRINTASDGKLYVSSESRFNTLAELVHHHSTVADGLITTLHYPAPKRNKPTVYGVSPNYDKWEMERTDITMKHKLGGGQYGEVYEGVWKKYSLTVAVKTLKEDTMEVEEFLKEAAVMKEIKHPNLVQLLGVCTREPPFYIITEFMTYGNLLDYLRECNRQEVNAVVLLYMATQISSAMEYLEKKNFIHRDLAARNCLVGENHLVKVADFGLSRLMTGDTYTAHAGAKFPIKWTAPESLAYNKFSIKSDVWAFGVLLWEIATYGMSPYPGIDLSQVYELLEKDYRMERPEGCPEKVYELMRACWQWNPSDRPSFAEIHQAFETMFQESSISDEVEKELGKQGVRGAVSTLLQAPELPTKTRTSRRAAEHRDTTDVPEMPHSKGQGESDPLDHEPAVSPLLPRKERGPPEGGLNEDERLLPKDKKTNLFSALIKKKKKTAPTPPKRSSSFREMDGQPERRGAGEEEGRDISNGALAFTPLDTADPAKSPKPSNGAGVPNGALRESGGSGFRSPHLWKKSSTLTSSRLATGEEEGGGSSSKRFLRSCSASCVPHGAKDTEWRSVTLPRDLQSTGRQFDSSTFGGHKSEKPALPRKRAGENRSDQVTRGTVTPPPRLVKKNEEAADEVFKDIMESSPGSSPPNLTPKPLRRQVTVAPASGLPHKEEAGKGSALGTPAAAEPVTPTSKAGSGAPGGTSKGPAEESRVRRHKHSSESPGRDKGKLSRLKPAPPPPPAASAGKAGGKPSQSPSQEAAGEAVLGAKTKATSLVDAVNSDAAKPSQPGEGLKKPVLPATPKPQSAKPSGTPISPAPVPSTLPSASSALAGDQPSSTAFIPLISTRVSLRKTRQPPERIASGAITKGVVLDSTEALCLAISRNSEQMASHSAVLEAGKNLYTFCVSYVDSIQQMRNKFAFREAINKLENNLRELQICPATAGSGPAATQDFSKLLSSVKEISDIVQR
Sequence of MAPKAP-K3 (h) (Q16644 whole entry): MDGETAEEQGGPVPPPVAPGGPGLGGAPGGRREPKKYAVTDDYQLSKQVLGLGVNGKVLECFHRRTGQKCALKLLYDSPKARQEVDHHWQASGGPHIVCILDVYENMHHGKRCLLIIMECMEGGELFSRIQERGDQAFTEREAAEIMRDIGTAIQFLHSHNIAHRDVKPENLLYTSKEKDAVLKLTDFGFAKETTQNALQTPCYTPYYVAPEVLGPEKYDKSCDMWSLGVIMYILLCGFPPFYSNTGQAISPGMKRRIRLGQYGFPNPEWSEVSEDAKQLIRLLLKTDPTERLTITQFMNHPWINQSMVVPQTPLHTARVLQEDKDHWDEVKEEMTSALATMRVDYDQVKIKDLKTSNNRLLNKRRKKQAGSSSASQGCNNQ
Sequence of Pim-1 (h) (P11309 whole entry): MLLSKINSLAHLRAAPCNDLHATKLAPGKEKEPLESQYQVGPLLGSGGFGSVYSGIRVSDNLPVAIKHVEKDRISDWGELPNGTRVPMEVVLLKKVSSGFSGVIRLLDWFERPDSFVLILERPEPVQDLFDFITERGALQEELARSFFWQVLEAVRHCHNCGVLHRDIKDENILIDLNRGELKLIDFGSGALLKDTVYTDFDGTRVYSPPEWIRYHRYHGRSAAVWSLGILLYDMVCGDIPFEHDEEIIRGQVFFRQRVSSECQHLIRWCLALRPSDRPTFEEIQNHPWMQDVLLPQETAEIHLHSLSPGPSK
Sequence of Rsk2 (h) (P51812 whole entry): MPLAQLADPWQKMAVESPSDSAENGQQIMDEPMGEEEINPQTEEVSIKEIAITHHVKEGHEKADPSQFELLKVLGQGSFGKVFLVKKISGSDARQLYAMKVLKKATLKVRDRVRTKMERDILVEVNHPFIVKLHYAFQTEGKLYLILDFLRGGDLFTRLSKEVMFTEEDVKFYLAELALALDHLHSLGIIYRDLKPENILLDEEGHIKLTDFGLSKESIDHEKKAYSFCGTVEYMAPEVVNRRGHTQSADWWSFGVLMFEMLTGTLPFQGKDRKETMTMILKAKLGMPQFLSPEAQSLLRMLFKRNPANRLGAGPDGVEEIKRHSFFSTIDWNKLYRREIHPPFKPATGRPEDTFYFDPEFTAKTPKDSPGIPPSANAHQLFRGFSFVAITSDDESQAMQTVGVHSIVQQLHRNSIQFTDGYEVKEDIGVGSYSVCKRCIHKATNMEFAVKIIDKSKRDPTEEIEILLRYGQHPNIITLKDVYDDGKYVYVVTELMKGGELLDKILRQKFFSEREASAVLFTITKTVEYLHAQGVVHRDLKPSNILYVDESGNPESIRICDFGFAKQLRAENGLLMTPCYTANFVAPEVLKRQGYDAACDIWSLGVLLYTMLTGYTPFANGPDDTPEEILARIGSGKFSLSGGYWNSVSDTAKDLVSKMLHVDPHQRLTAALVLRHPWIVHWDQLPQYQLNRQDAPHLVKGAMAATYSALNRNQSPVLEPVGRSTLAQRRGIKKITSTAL
Sequence of MAPKAP-K2 (h) (P49137 46-400 limits assumed): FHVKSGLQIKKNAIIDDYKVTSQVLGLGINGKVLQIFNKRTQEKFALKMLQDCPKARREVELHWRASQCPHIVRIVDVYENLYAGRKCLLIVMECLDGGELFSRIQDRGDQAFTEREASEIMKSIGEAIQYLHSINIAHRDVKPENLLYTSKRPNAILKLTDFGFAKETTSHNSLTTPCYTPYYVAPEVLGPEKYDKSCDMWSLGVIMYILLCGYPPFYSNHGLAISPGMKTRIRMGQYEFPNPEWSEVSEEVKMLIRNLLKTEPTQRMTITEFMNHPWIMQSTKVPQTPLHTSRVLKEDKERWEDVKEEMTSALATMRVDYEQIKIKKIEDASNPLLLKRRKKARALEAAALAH
Sequence of KDR (tl) (P35968 790-1356 limits assumed): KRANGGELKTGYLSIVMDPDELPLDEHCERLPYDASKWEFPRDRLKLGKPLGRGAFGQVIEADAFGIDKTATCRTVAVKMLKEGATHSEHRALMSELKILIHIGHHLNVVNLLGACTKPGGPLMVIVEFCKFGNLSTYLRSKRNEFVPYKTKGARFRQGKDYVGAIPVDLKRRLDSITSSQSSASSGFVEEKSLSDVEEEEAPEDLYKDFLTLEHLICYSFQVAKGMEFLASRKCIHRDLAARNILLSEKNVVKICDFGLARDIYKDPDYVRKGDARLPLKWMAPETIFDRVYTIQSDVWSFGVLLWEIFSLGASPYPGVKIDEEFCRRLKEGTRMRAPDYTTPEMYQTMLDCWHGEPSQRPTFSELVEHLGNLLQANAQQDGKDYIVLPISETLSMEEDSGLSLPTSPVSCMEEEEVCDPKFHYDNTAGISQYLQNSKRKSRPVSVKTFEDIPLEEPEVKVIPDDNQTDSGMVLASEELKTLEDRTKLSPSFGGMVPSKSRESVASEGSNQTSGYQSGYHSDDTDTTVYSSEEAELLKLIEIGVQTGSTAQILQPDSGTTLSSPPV

Binder: FAKLAARLYRKALARQLGVAA
- Profile-1 @ = 100 µm (kinase profiler assay) (Abl (h)): 41
- Profile-1 @ = 100 µm (kinase profiler assay) (ASK1 (h)): 53
- Profile-1 @ = 100 µm (kinase profiler assay) (Aurora-A (h)): 65
- Profile-1 @ = 100 µm (kinase profiler assay) (CKIB (h)): 99
- Profile-1 @ = 100 µm (kinase profiler assay) (CK2 (h)): 80
- Profile-1 @ = 100 µm (kinase profiler assay) (cKit (h)): 42
- Profile-1 @ = 100 µm (kinase profiler assay) (EGFR (h)): 18
- Profile-1 @ = 100 µm (kinase profiler assay) (IRAK4 (h)): 13
- Profile-1 @ = 100 µm (kinase profiler assay) (KDR (tl)): 78
- Profile-1 @ = 100 µm (kinase profiler assay) (MAPKI (h)): 104
- Profile-1 @ = 100 µm (kinase profiler assay) (MAPKAP-K2 (h)): 5
- Profile-1 @ = 100 µm (kinase profiler assay) (MAPKAP-K3 (h)): 10
- Profile-1 @ = 100 µm (kinase profiler assay) (Met (h)): 17
- Profile-1 @ = 100 µm (kinase profiler assay) (MKK4 (m)): 90
- Profile-1 @ = 100 µm (kinase profiler assay) (MKK6 (h)): 42
- Profile-1 @ = 100 µm (kinase profiler assay) (MLCK (h)): 1
- Profile-1 @ = 100 µm (kinase profiler assay) (MSK1 (h)): 11
- Profile-1 @ = 100 µm (kinase profiler assay) (Pim-1 (h)): 1
- Profile-1 @ = 100 µm (kinase profiler assay) (PKCδ (h)): 40
- Profile-1 @ = 100 µm (kinase profiler assay) (Rsk2 (h)): -1
- Profile-1 @ = 100 µm (kinase profiler assay) (Tie2 (h)): 0

— patent US20090149389A1 (PURDUE RESEARCH FOUNDATION, published 2009)
